From patent US20240029824A1 (University of Washington, published 2024)
Values belong to the binder of their own block, whether it stands above or below them.

What was measured:
[1] = molecular target: T1, DHT03_variant_AB-1 chain B; assay: native MS; loop-connectivity variant of DHT03, AB heterodimer
T1 chain: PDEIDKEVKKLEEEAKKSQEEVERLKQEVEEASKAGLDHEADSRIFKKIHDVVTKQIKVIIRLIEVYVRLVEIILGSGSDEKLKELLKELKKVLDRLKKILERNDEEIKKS

[2] = molecular target: T2, DHT03_variant_AB-3 chain B; assay: as above
T2 chain: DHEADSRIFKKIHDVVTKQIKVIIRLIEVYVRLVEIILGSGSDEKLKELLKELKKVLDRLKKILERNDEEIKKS

DHT08 chain C = molecular target: T3, DHT08 chain C; assay: co-expression, IMAC, SEC, native MS; chains of one ABC heterotrimer
T3 chain: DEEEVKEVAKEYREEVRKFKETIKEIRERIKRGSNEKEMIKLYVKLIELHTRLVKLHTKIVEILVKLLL
Source text: (§1) Genes encoding 85 heterotrimers in a tricistronic expression vector were obtained, and the proteins were expressed in E. coli and purified via IMAC with only one chain having the 6×His-tag. Nine of the designs (FIG. 3a) had monodisperse SEC peaks (FIG. 3b), were almost exclusively ABC by nMS, and had good SAXS fits to the design models (Table 7). […] Eight of the designs are parallel heterotrimers, while DHTO9 is an antiparallel heterotrimer. […] For 3 other designs, only the ABC heterotrimer was determined to form by nMS (when the respective SEC fraction was analyzed) but the heterotrimer SEC peak was preceded by soluble aggregate that would make building with these constructs difficult downstream. We explored the dependence of cooperativity on connectivity between the three chains by changing the positions of the loops across different helices in DHT03, while keeping the rest of the interface intact. […] The ability to sustain alternate loop closures increases the number of heteromeric building blocks available for future nanostructure assembly applications and may enable rigid fusion of functional domains to the different termini available.
(§2) Samples were analyzed by online buffer exchange native mass spectrometry (nMS) to evaluate sample purity and accurately determine oligomeric states⁴². Multiple instruments were used as the analyses were carried out over the duration of the protein design process. The mass spectrometers used for detection were a Q Exactive™ UHMR modified with a surface-induced dissociation device and an Exactive™ Plus EMR modified with a selection quadrupole and a surface-induced dissociation device (Thermo Fisher Scientific)⁴³. The liquid chromatography systems used for the buffer exchange include a Vanquish™ Duo UHPLC and a Dionex™ Ultimate 3000 HPLC (Thermo Fisher Scientific). A heated electrospray ionization source (HESI-II, Thermo Fisher Scientific) with a spray voltage of ˜4 kV was used for ionization.

DHT08 chain B = molecular target: T4, DHT08 chain B; assay: as above
T4 chain: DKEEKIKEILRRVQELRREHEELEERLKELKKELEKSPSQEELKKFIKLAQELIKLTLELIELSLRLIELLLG
Source text: as §1, §2

[3] = molecular target: T5, DHT03_variant_ABC-2 chain B; assay: native MS; loop-connectivity variant of DHT03, chains of one ABC heterotrimer
T5 chain: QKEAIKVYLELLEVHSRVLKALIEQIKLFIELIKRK

[4] = molecular target: T6, DHT03_variant_ABC-2 chain C; assay: as above
T6 chain: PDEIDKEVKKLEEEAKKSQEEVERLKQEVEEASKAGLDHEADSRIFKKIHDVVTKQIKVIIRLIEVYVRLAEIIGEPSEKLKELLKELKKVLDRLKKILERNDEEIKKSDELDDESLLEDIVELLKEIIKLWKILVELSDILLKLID

DHT06 chain C = molecular target: T7, DHT06 chain C; assay: co-expression, IMAC, SEC, native MS; chains of one ABC heterotrimer
T7 chain: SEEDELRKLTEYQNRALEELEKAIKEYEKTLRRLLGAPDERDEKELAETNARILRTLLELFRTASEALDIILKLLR
Source text: as §1, §2

DHT06 chain B = molecular target: T8, DHT06 chain B; assay: as above
T8 chain: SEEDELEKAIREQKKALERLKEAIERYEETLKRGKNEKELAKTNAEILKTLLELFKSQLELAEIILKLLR
Source text: as §1, §2

[5] = molecular target: T9, DHT03_variant_AB-4 chain B; assay: native MS; loop-connectivity variant of DHT03, AB heterodimer
T9 chain: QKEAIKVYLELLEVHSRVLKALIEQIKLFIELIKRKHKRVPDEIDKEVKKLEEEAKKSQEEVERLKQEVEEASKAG

DHT07 chain B = molecular target: T10, DHT07 chain B; assay: co-expression, IMAC, SEC, native MS; chains of one ABC heterotrimer
T10 chain: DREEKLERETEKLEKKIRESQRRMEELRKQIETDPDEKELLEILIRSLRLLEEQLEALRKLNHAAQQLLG
Source text: as §1, §2

DHT07 chain C = molecular target: T11, DHT07 chain C; assay: as above
T11 chain: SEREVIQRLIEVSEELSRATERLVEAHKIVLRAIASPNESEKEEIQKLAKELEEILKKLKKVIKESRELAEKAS
Source text: as §1, §2

C4-DHT03-02 chain B = molecular target: T12, C4-DHT03-02 chain B; assay: chains mixed and annealed, SEC, negative stain EM; A4B4C4 ring
T12 construct: four copies in the A4B4C4 ring
T12 chain: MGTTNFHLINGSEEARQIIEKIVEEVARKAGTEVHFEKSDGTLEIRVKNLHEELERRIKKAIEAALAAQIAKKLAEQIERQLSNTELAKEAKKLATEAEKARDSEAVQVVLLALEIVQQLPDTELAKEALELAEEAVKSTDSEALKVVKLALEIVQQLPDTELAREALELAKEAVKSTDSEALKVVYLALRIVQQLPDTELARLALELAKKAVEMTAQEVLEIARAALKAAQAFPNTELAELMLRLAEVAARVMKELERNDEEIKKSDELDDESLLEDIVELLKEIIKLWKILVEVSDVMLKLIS

[6] = molecular target: T13, DHT03 chain C (SEQ ID NO: 59); assay: as above
T13 chain: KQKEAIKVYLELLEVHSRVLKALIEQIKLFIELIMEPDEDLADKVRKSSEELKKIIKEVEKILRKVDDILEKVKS

DHT04 chain B = molecular target: T14, DHT04 chain B; assay: co-expression, IMAC, SEC, native MS; chains of one ABC heterotrimer
T14 chain: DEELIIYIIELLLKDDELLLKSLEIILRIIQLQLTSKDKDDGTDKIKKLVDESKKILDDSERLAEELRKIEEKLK
Source text: as §1, §2

DHT04 chain C = molecular target: T15, DHT04 chain C; assay: as above
T15 chain: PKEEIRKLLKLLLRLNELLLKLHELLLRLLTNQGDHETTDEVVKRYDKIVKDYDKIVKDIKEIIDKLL
Source text: as §1, §2

DHT09 chain B = molecular target: T16, DHT09 chain B; assay: as above
T16 chain: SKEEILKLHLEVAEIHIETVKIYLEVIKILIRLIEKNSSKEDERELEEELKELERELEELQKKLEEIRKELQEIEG
Source text: as §1, §2

DHT09 chain C = molecular target: T17, DHT09 chain C; assay: as above
T17 chain: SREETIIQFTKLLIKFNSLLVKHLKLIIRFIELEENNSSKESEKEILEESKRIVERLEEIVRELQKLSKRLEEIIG
Source text: as §1, §2

DHT02 chain B = molecular target: T18, DHT02 chain B; assay: as above
T18 chain: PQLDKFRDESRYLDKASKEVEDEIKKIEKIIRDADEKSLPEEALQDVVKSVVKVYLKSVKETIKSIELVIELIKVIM
Source text: as §1, §2

DHT02 chain C = molecular target: T19, DHT02 chain C; assay: as above
T19 chain: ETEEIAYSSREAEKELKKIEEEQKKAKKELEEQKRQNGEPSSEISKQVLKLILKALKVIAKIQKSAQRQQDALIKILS
Source text: as §1, §2

DHT10 chain C = molecular target: T20, DHT10 chain C; assay: as above
T20 chain: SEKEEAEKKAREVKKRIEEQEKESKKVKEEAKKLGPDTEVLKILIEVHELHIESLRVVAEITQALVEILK
Source text: as §1, §2

DHT10 chain B = molecular target: T21, DHT10 chain B; assay: as above
T21 chain: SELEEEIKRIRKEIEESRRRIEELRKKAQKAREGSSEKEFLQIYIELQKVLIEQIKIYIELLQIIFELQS
Source text: as §1, §2

[7] = molecular target: T22, DHT03_variant_AB-2 chain B; assay: native MS; loop-connectivity variant of DHT03, AB heterodimer
T22 chain: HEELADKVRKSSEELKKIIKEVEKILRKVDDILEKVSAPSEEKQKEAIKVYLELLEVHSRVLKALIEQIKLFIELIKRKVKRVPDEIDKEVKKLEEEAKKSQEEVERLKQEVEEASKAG

B1: DHT03_variant_AB-1 chain A (designed binder)
chain: DESLLEDIVELLKEIIKLWKILVELSDILLKLIGGDDKVRKSSEELKKIIKEVEKILRKVDDILYKVSAPSEEKQKEAIKVYLELLEVHSRVLKALIEQIKLFIELIKR
- binding result [1]: binds

B2: DHT03_variant_AB-3 chain A (designed binder)
chain: DESLLEDIVELLKEIIKLWKILVELSDILLKLIGGDDKVRKSSEELKKIIKEVEKILRKVDDILYKVSAPSEEKQKEAIKVYLELLEVHSRVLKALIEQIKLFIELIKRKHKRVPDEIDKEVKKLEEEAKKSQEEVERLKQEVEEASKAG
- binding result [2]: binds

B3: DHT08 chain A (designed binder)
chain: SKEEIEKELKKLKKELEELKREIEKSTKKLEEVRGSNSEKELIQIIKEQIEISERLLEISTRLLEIIIKLLG
- binding result (DHT08 chain C): binds
- binding result (DHT08 chain B): binds

Binder: HEELADEVRKSSEELKKIIEEVEKILRKVDDILYKVG (designed binder) [DHT03_variant_ABC-2 chain A]
- binding result [3]: binds
- binding result [4]: binds

B4: DHT06 chain A (designed binder)
chain: DEKELAKTNAEILKTLLELFEAESRLQEIILKLLERPDEKEEDELKRALERLKEALERLEEAIKRYEETLKRLL
- binding result (DHT06 chain C): binds
- binding result (DHT06 chain B): binds

B5: DHT03_variant_AB-4 chain A (designed binder)
chain: DHEADSRIFKKIHDVVTKQIKVIIRLIEVYVRLVEIILGSGSDEKLKELLKELKKVLDRLKKILERNDEEIKKSDELDDESLLEDIVELLKEIIKLWKILVELSDILLKLIGGDDKVRKSSEELKKIIKEVEKILRKVDDILYKVS
- binding result [5]: binds

Now from value to binder:

- binding result (DHT07 chain B): binds
- binding result (DHT07 chain C): binds
B6: DHT07 chain A (designed binder)
chain: SEKELIQLYVEAQELYAEAFELQVEIFKLLVKILSANSPKDEKEKIEKRIEEVQKRIKEIQERLQEIQKRLEEAG

- binding result (C4-DHT03-02 chain B): binds
- binding result [6]: binds
B7: C4-DHT03-02 chain A (designed binder)
chain: MGNTHFIVVHGGEEARQLAETAVREISKKEGTEVRFEKKDGLLSIEVKNLSEELQRLIQELLQLLVRLAALLEAVRAVEEAIKRNPDNDEAVETAVRLARELKKVAELLQELAKKAGVPAILRGALLALEVAVRAVELAIKSNPDNDEAVETAVRLARELLKVAAELAERAAKTKDEELIKLAQRAIEVAQRAVELAKKSNKDNEEAEKTRLALEAMELALQIFRQLKNTELAREAIELATEAAKATDSEALKVVKLALKIVQQLPDTELAKEALELAKEAVKSTDSEALKVVELALEIVQQLPDTELAKEALKLAKEAVKSTDSEALKVVYLALRIVQQLPDTELAREALELAKEAVKSTDSEQLEVVRLALEIVQLAPDTRLARAALKLAKEAVKSTDQEELKKVKAILRVASEVLKLEEEAKKSQEEVERLKQEVEKASKAGLDHEGDSRIFKKIHDVVTKQIKVILRLIAVYAELVAIIG
notes: four copies in the A4B4C4 ring

- binding result (DHT04 chain B): binds
- binding result (DHT04 chain C): binds
B8: DHT04 chain A (designed binder)
chain: PERELLELLIRLFNSQVKLFELQKELLELLRELLEENSEDNSRKLEDLLRKIQELLKENQDLLYTVEDVLRKLK

- binding result (DHT09 chain B): binds
- binding result (DHT09 chain C): binds
B9: DHT09 chain A (designed binder)
chain: SEDEDLIRSVRVIQKSVEIILEMVKIIQELLKSTSEEELKELLKKLKRLIEKLEELLRQYEELLKKIKG

- binding result (DHT02 chain B): binds
- binding result (DHT02 chain C): binds
B10: DHT02 chain A (designed binder)
chain: PDSDELRKLLKQLEDLLQQLKDLIDKAERHNGDNDVILELHEIYLRLLDIYQKLAKIILKLLR

- binding result (DHT10 chain C): binds
- binding result (DHT10 chain B): binds
B11: DHT10 chain A (designed binder)
chain: SEEEELKKLQEEIKKLKKQVERLEKESKELEKRLEKSPSEEIAKELLRITAELVEISEELAEATKRLLEIAG

- binding result [7]: binds
B12: DHT03_variant_AB-2 chain A (designed binder)
chain: DHEADSRIFKKIHDVVTKQIKVIIRLIEVYVRLVEIILGSGSDEKLKELLKELKKVLDRLKKILERNDEEIKKSDELDDESLLEDIVELLKEIIKLWKILVELSDILLKLID
